Source: PMC8777168 (2022)

B1: STUB1, expressed from a plasmid in 293T cells [not stated] / MIF in 293T cells [not stated] (parent complex)
chain 1: MKGKEEKEGGARLGAGGGSPEKSPSAQELKEQGNRLFVGRKYPEAAACYGRAITRNPLVAVYYTNRALCYLKMQQHEQALADCRRALELDGQSVKAHFFLGQCQLEMESYDEAIANLQRAYSLAKEQRLNFGDDIPSALRIAKKKRWNSIEERRIHQESELHSYLSRLIAAERERELEECQRNHEGDEDDSHVRAQQACIEAKHDKYMADMDELFSQVDEKRKKRDIPDYLCGKISFELMREPCITPSGITYDRKDIEEHLQRVGHFDPVTRSPLTQEQLIPNLAMKEVIDAFISENGWVEDY
chain 2: PMFIVNTNVPRASVPDGFLSELTQQLAQATGKPPQYIAVHVVPDQLMAFGGSSEPCALCSLHSIGKIGGAQNRSYSKLLCGLLAERLRISPDRVYINYYDMNAANVGWNNSTFA

Variants of: B1
Assay: co-immunoprecipitation (IP: Myc, IB: MIF) and western blot, band quantification; 293T cells transfected for 24 h with STUB1 mutation plasmids; triplicate experiments, mean ± SD; read off a plot

| response | Variant |
| --- | --- |
| ~0.22 MIF/Input ratio | chain 1 K143A |
| ~0.25 MIF/Input ratio | chain 1 R66A |
| ~1 MIF/Input ratio | chain 1 S149A |
| ~1 MIF/Input ratio | chain 1 W147A |
